For one assay, the target named is T1, human IGF-II (Peprotech) (human, UniProt P01344 25-91).
T1 construct: Bought reagent; also called IGF-2
Description: far-Western: COS-1 cell lysate on PVDF membrane, probed with 2 µg/ml human IGF-II, detected with anti-human IGF-II monoclonal antibody. The procedure: (§1) To investigate the binding affinity of the proteins encoded by C-hsi13412 and C-kaia397 to IGF, analysis by far-Western (Molecular Cloning—A Laboratory Manual, Third Edition, Cold Spring Harbor Laboratory; Protein Experiment Protocol 1, Shujunsha) was carried out using the cell lysates of COS-1/C-hsi13412 cell line, COS-1/C-kaia397, and, as a control, COS-1/mock cell line obtained in Example 8.
(§2) A 5 μl aliquot of the cell lysates of COS-1/mock cell line, COS-1/C-hsi13412 cell line, and COS-1/C-kaia397 cell line was placed into each lane, and according to Example 14, SDS-PAGE was carried out, transferred to a PVDF membrane, and then blocked. Subsequently, 2 μg/ml human IGF-I (Peprotech), 2 μg/ml human IGF-II (Peprotech), or 2 μg/ml of human insulin (Sigma) diluted with the blocking solution was enclosed with the membrane, and was allowed to react at room temperature overnight. Next, anti-human IGF-I monoclonal antibody (Upstate Biotechnology), anti-human IGF-II monoclonal antibody (Upstate Biotechnology), or anti-human insulin polyclonal antibody (Santa Cruz) were added to each of the membranes to a concentration of 2 μg/ml, and was left standing at room temperature for 1 hour. After the membrane was washed well with Tween-TBS, detection was carried out using peroxiase-labeled rabbit anti-mouse immunoglobulin (DAKO) diluted 2,000 times as the secondary antibody.

A further assay concerns the target T2, human insulin (Sigma) (human, UniProt P01308 25-54; P01308 90-110).
T2 construct: Bought reagent
Description: far-Western: COS-1 cell lysate on PVDF membrane, probed with human insulin, detected with anti-human insulin polyclonal antibody. As to the method: as §1, §2

For another assay, the target named is T3, human IGF-I (Peprotech) (human, UniProt P05019 49-118).
T3 construct: Bought reagent; also called IGF-1
Description: far-Western: COS-1 cell lysate on PVDF membrane, probed with 2 µg/ml human IGF-I, detected with anti-human IGF-I monoclonal antibody. The procedure:
as §1, §2

T3 sequence (P05019 49-118 limits assumed): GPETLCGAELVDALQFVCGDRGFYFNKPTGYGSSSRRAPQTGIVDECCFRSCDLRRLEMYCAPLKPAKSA
T1 sequence (P01344 25-91 limits assumed): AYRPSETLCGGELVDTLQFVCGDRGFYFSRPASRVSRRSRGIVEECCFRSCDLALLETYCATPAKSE
T2 sequence (P01308 25-54 limits assumed, chain 1 of 2): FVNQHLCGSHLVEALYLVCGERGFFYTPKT
T2 sequence (P01308 90-110 limits assumed, chain 2 of 2): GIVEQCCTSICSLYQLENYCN

B1: protein encoded by C-kaia397 with FLAG marker peptide at the C-terminus, expressed in COS-1 cells (COS-1/C-kaia397 cell line) (other, not shown: small tags and cut ends)
chain: RPSPGPDYLRRGWMRLLAEGEGCAPCRPEECAAPRGCLAGRVRDAGGCCWECANLEGQLCDLDPSAHFYGHCGEQLECRLDTGGDLSRGEVPEPLCACRSQSPLCGSDGHTYSQICRLQEAARARPDANLTVAHPGPCESDWMPLLGHAILRPPAFTPRAPDRVTSI
notes: Tested as COS-1 cell lysate or culture supernatant, not purified
Regarding B1, the results for the binding result with human IGF-II (Peprotech), with human insulin (Sigma) and with human IGF-I (Peprotech) were “binds”, “no binding (tested: 2 µg/ml)” and “binds”, respectively.

(Values after patent US20040072238A1 (Kyowa Kirin, published 2004).)
